# Key:
# [1] = target: T1, 人血清白蛋白(Human Serum Albumin,HSA) (human, UniProt P02768 25-609); test: Octet BLI, biotinylated HSA on SA sensor, VHH in solution
# T1 construct: The only source named is native HSA (abcam ab205808), for immunisation; also called HSA蛋白; HSA抗原
# [2] = target: T2, 食蟹猴血清白蛋白 (cynomolgus monkey (食蟹猴), UniProt A2V9Z4 25-608, biotin-labelled (sites not given)); test: Octet BLI, biotinylated cynomolgus serum albumin on SA sensor, VHH in solution
# T2 construct: Biotin-labelled and loaded on SA sensors in the Octet assay; also called albumin-macaca; alb-ma
# T2 sequence (A2V9Z4 25-608 limits assumed): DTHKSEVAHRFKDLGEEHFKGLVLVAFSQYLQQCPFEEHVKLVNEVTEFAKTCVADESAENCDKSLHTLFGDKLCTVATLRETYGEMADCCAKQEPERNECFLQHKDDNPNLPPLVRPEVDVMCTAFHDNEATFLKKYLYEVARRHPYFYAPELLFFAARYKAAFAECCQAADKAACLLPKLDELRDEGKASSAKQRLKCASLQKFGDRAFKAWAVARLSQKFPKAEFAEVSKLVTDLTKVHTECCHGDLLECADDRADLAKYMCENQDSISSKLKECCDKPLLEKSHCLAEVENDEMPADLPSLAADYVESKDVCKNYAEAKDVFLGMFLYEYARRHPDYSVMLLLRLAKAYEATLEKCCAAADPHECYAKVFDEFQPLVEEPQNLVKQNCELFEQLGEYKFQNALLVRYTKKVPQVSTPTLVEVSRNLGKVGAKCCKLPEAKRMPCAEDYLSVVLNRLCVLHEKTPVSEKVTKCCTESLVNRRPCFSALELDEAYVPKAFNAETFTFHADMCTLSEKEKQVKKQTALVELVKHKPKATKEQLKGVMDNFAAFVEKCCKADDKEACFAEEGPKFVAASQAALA
# T1 sequence (P02768 25-609 limits assumed): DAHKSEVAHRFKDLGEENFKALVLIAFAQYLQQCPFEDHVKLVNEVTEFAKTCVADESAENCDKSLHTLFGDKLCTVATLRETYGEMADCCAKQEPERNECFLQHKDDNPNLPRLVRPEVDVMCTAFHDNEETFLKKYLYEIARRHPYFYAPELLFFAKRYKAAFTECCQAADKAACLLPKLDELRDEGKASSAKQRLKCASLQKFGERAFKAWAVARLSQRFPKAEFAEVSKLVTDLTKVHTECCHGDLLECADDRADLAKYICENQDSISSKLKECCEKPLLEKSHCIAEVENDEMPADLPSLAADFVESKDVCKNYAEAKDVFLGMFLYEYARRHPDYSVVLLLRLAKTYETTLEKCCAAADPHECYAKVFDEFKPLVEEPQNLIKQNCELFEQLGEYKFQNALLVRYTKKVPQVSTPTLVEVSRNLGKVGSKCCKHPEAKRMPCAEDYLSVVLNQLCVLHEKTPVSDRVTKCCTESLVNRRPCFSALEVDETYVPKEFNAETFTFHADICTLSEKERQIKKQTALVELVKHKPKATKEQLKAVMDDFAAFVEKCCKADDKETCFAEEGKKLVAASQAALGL
Binder,Kd [1] [nM],koff [1] [s⁻¹],kon [1] [M⁻¹ s⁻¹],Kd [2] [nM],koff [2] [s⁻¹],kon [2] [M⁻¹ s⁻¹]
"单域抗体LB22 (VHH, not shown: C-terminal 6xHis-tag and HA-tag) VHH: QVQLQESGGGVVQPGGSLRLSCTASGFTFSVYAMGWYRQAPGKDCELVGLITSTSDTRYADSVKGRFSISRDNAKKTVYLQMNRLKPEDTAVYYCMAGNSWGATVQAMCKSDYDYWGQGTQVTVSS",0.109,0.00014,1.29e+06,0.708,6.47e-05,91300
"单域抗体LB21 (VHH, not shown: C-terminal 6xHis-tag and HA-tag) VHH: QVQLVESGGGLVQPGGSLRLSCAASRIIFDVYNLAWFRQAPGKERELVASITSGLSTDYATTVKGRFIISRDNAKNTVYLQMNNLKPEDTAVYYCTANSRTTWYYWGQGTLVTVSS",1.24,0.000687,554000,0.217,2.69e-05,124000
